The results in this text go back to PMC13343191, “APE1 binds and processes abasic sites present in i-motif DNA and cooperates with PCBP1 in maintenance of telomeric stability”.

In series [1] the target is APE1 WT (UniProt P27695 1-318). The experiment in a line: southwestern blot; switchSENSE: MES pH 5.5 (APE1) or 6.5 (iMab); UV-crosslinking: 50 mM Tris-acetate pH 5.5, 50 mM KCl, 1 mM DTT, 0.8% glycerol, 0.4 mM EDTA, 4°C; NMR: 50 mM NaCl, 10 mM MES pH 5.5, 1 mM DTT, 25°C; SMADNE: 25 mM MES pH 5.5, 150 mM NaCl, 0.1 mg/ml BSA, 1 mM DTT, 1 mM Trolox. To be noted: protein: recombinant; tags: GST (Factor Xa cleavable, pGEX-3X) or His/GFP (pTAC-MAT); label: 5' IRDye800 (SWB, UV-crosslinking); i-motif, intramolecular.
Chain of APE1 WT (P27695 whole entry): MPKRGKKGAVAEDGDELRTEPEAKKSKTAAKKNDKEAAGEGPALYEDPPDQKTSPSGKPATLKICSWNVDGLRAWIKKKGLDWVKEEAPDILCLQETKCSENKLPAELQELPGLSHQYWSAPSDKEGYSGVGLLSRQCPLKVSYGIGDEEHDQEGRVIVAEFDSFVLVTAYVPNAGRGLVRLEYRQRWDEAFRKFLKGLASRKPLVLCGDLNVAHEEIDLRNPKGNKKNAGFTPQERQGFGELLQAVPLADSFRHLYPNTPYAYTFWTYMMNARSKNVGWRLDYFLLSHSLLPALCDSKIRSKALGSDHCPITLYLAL

For series [2], the target named is APE1 NΔ33 (UniProt P27695 34-318, del1-33). Described as above. Conditions: protein: recombinant; tags: GST (Factor Xa cleavable, pGEX-3X) or His/GFP (pTAC-MAT); label: 5' IRDye800 (SWB, UV-crosslinking); i-motif, intramolecular.
Chain of APE1 NΔ33 (P27695 34-318, stated change not applied): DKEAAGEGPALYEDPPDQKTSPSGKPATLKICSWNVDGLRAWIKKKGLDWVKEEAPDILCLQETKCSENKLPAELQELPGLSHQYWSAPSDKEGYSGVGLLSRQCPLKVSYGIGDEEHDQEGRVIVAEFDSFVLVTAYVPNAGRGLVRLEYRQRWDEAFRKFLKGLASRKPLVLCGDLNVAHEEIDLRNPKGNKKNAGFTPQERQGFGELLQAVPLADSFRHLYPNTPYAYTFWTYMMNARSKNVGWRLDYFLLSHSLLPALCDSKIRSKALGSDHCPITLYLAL

Regarding TAACCCTAACCCTAACCCTAACCCTAA (structured_DNA) [C-NAT], the binding result in series [1] and in series [2] was “binds” each time.
